The values that follow come from the supplement of paper PMC5998384.

Data set [1] has as its system HeLa Kyoto. Nature of the data set: solubility in G1/S (NP-40 vs SDS abundance) (log2 ratio); higher = more soluble. The note with it: cell cycle stage: G1/S.
Data set [2] has as its system HeLa Kyoto. The data set can be described thus: thermal stability score vs G1/S (z-score of summed log2 fold changes over temperatures); higher = more thermally stable than in G1/S.
Data set [3] concerns HeLa Kyoto. The data set can be described thus: melting temperature (median over replicates), in situ; higher = more thermally stable.
The test system of data set [4] is HeLa Kyoto. Nature of the data set: solubility change mitosis vs G1/S (difference of NP-40 vs SDS log2 ratios) (log2 ratio difference); higher = more soluble in mitosis.
The mark [5] stands for this setting: cell cycle stage: early G1 (4.5 h after nocodazole release).
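For melting temperature (median over replicates), in situ in this document: HeLa Kyoto cells synchronized by double thymidine or nocodazole block, proteins quantified by TMT10plex mass spectrometry, three independent biological replicates.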
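For solubility change mitosis vs G1/S (difference of NP-40 vs SDS log2 ratios) in this document: synchronized HeLa Kyoto cells (double thymidine block for G1/S, nocodazole release for mitosis), protein amounts in NP-40 versus SDS lysates quantified by mass spectrometry, three biological replicates.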
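For solubility in G1/S (NP-40 vs SDS abundance) in this document: HeLa Kyoto cells arrested at G1/S by double thymidine block, proteins quantified by TMT10plex mass spectrometry in mild NP-40 versus SDS extracts, three biological replicates.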
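For thermal stability score vs G1/S (z-score of summed log2 fold changes over temperatures) in this document: synchronized HeLa Kyoto cells, proteins quantified by TMT10plex mass spectrometry, three biological replicates, mitosis taken 0.5 h after nocodazole release, G1/S directly after double thymidine block.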

PPCS, sequence (chain, as listed by the source): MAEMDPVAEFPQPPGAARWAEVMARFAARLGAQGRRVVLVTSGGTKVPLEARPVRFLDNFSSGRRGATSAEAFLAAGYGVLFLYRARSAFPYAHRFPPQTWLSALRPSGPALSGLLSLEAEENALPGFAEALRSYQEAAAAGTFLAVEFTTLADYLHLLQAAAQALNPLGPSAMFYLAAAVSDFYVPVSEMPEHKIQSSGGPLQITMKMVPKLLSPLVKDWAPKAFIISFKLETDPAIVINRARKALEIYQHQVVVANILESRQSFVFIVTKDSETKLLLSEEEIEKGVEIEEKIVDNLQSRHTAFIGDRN

Take “MRVAGAAKLVVAVAVFLLTFYVISQVFEIKMDASLGNLFARSALDTAARSTKPPRYKCGISKACPEKHFAFKMASGAANVVGPKICLEDNVLMSGVKNNVGRGINVALANGKTGEVLDTKYFDMWGGDVAPFIEFLKAIQDGTIVLMGTYDDGATKLNDEARRLIADLGSTSITNLGFRDNWVFCGGKGIKTKSPFEQHIKNNKDTNKYEGWPEVVEMEGCIPQKQD [FAM3C]”: the “solubility in G1/S (log2)” value in the data set with HeLa Kyoto [1] amounted to 0.634. In addition, the thermal stability score in the data set with HeLa Kyoto [2] (setting [5]) amounted to 0.362; with HeLa Kyoto [2] (cell cycle stage: mitosis), 0.765. In addition, the melting temperature in the data set on HeLa Kyoto [3] (cell cycle stage: G1/S) worked out at 54.2 °C; in the data set with HeLa Kyoto [3] (cell cycle stage: mitosis) it was 53.2 °C. For the same substance, the “solubility change mitosis (log2)” value in the data set with HeLa Kyoto [4] was 0.0546.
Take “METQLSNGPTCNNTANGPTTINNNCSSPVDSGNTEDSKTNLIVNYLPQNMTQEELKSLFGSIGEIESCKLVRDKITGQSLGYGFVNYIDPKDAEKAINTLNGLRLQTKTIKVSYARPSSASIRDANLYVSGLPKTMTQKELEQLFSQYGRIITSRILVDQVTGISRGVGFIRFDKRIEAEEAIKGLNGQKPPGATEPITVKFANNPSQKTNQAILSQLYQSPNRRYPGPLAQQAQRFRLDNLLNMAYGVKRFSPMTIDGMTSLAGINIPGHPGTGWCIFVYNLAPDADESILWQMFGPFGAVTNVKVIRDFNTNKCKGFGFVTMTNYDEAAMAIASLNGYRLGDRVLQVSFKTNKTHKA [ELAVL2]”: the “solubility in G1/S (log2)” value in the data set with HeLa Kyoto [1] worked out at 0.208. Also, the thermal stability score in the data set on HeLa Kyoto [2] (setting [5]) was -0.26; in the data set with HeLa Kyoto [2] (cell cycle stage: mitosis) it was -1.01. The melting temperature in the data set on HeLa Kyoto [3] (cell cycle stage: G1/S) is 52.6 °C; in the data set on HeLa Kyoto [3] (cell cycle stage: mitosis), 52.2 °C. In addition, the “solubility change mitosis (log2)” value in the data set on HeLa Kyoto [4] was -0.0286.
As for “MASQPNSSAKKKEEKGKNIQVVVRCRPFNLAERKASAHSIVECDPVRKEVSVRTGGLADKSSRKTYTFDMVFGASTKQIDVYRSVVCPILDEVIMGYNCTIFAYGQTGTGKTFTMEGERSPNEEYTWEEDPLAGIIPRTLHQIFEKLTDNGTEFSVKVSLLEIYNEELFDLLNPSSDVSERLQMFDDPRNKRGVIIKGLEEITVHNKDEVYQILEKGAAKRTTAATLMNAYSSRSHSVFSVTIHMKETTIDGEELVKIGKLNLVDLAGSENIGRSGAVDKRAREAGNINQSLLTLGRVITALVERTPHVPYRESKLTRILQDSLGGRTRTSIIATISPASLNLEETLSTLEYAHRAKNILNKPEVNQKLTKKALIKEYTEEIERLKRDLAAAREKNGVYISEENFRVMSGKLTVQEEQIVELIEKIGAVEEELNRVTELFMDNKNELDQCKSDLQNKTQELETTQKHLQETKLQLVKEEYITSALESTEEKLHDAASKLLNTVEETTKDVSGLHSKLDRKKAVDQHNAEAQDIFGKNLNSLFNNMEELIKDGSSKQKAMLEVHKTLFGNLLSSSVSALDTITTVALGSLTSIPENVSTHVSQIFNMILKEQSLAAESKTVLQELINVLKTDLLSSLEMILSPTVVSILKINSQLKHIFKTSLTVADKIEDQKKELDGFLSILCNNLHELQENTICSLVESQKQCGNLTEDLKTIKQTHSQELCKLMNLWTERFCALEEKCENIQKPLSSVQENIQQKSKDIVNKMTFHSQKFCADSDGFSQELRNFNQEGTKLVEESVKHSDKLNGNLEKISQETEQRCESLNTRTVYFSEQWVSSLNEREQELHNLLEVVSQCCEASSSDITEKSDGRKAAHEKQHNIFLDQMTIDEDKLIAQNLELNETIKIGLTKLNCFLEQDLKLDIPTGTTPQRKSYLYPSTLVRTEPREHLLDQLKRKQPELLMMLNCSENNKEETIPDVDVEEAVLGQYTEEPLSQEPSVDAGVDCSSIGGVPFFQHKKSHGKDKENRGINTLERSKVEETTEHLVTKSRLPLRAQINL [KIF11]”, the “solubility in G1/S (log2)” value with HeLa Kyoto [1] was -0.0398. Moreover, the thermal stability score in the data set with HeLa Kyoto [2] (setting [5]) came to 6; in the data set with HeLa Kyoto [2] (cell cycle stage: mitosis), 5.17. In addition, the melting temperature was found to be 48.2 °C in the data set on HeLa Kyoto [3] (cell cycle stage: G1/S) and 49 °C in the data set on HeLa Kyoto [3] (cell cycle stage: mitosis). The “solubility change mitosis (log2)” value in the data set on HeLa Kyoto [4] is -0.143.
Turning to PPCS, in the data set on HeLa Kyoto [1], the “solubility in G1/S (log2)” value was 0.249. Further, the thermal stability score is -0.584 with HeLa Kyoto [2] (setting [5]) and -0.132 in the data set on HeLa Kyoto [2] (cell cycle stage: mitosis). Besides, the melting temperature with HeLa Kyoto [3] (cell cycle stage: G1/S) stood at 52.1 °C; in the data set with HeLa Kyoto [3] (cell cycle stage: mitosis), 52.9 °C. Besides, the “solubility change mitosis (log2)” value in the data set with HeLa Kyoto [4] is -0.173.
In the case of “MAAAAMAAAAGGGAGAARSLSRFRGCLAGALLGDCVGSFYEAHDTVDLTSVLRHVQSLEPDPGTPGSERTEALYYTDDTAMARALVQSLLAKEAFDEVDMAHRFAQEYKKDPDRGYGAGVVTVFKKLLNPKCRDVFEPARAQFNGKGSYGNGGAMRVAGISLAYSSVQDVQKFARLSAQLTHASSLGYNGAILQALAVHLALQGESSSEHFLKQLLGHMEDLEGDAQSVLDARELGMEERPYSSRLKKIGELLDQASVTREEVVSELGNGIAAFESVPTAIYCFLRCMEPDPEIPSAFNSLQRTLIYSISLGGDTDTIATMAGAIAGAYYGMDQVPESWQQSCEGYEETDILAQSLHRVFQKS [ADPRHL2]”, the “solubility in G1/S (log2)” value in the data set on HeLa Kyoto [1] was 0.408. Moreover, the values for the thermal stability score in the data set with HeLa Kyoto [2] (setting [5]) and with HeLa Kyoto [2] (cell cycle stage: mitosis) were 0.365 and -0.404, respectively. Moreover, the melting temperature was 53.3 °C in the data set on HeLa Kyoto [3] (cell cycle stage: G1/S) and 52.5 °C with HeLa Kyoto [3] (cell cycle stage: mitosis). Also, in the data set on HeLa Kyoto [4], the “solubility change mitosis (log2)” value was -0.105.
For “MTPPRLFWVWLLVAGTQGVNDGDMRLADGGATNQGRVEIFYRGQWGTVCDNLWDLTDASVVCRALGFENATQALGRAAFGQGSGPIMLDEVQCTGTEASLADCKSLGWLKSNCRHERDAGVVCTNETRSTHTLDLSRELSEALGQIFDSQRGCDLSISVNVQGEDALGFCGHTVILTANLEAQALWKEPGSNVTMSVDAECVPMVRDLLRYFYSRRIDITLSSVKCFHKLASAYGARQLQGYCASLFAILLPQDPSFQMPLDLYAYAVATGDALLEKLCLQFLAWNFEALTQAEAWPSVPTDLLQLLLPRSDLAVPSELALLKAVDTWSWGERASHEEVEGLVEKIRFPMMLPEELFELQFNLSLYWSHEALFQKKTLQALEFHTVPFQLLARYKGLNLTEDTYKPRIYTSPTWSAFVTDSSWSARKSQLVYQSRRGPLVKYSSDYFQAPSDYRYYPYQSFQTPQHPSFLFQDKRVSWSLVYLPTIQSCWNYGFSCSSDELPVLGLTKSGGSDRTIAYENKALMLCEGLFVADVTDFEGWKAAIPSALDTNSSKSTSSFPCPAGHFNGFRTVIRPFYLTNSSGVD [LGALS3BP]”, the “solubility in G1/S (log2)” value in the data set with HeLa Kyoto [1] is -0.0572. Besides, the thermal stability score is 1.36 in the data set with HeLa Kyoto [2] (setting [5]) and 2.15 in the data set on HeLa Kyoto [2] (cell cycle stage: mitosis). Further, the melting temperature in the data set with HeLa Kyoto [3] (cell cycle stage: G1/S) is 54.5 °C; in the data set with HeLa Kyoto [3] (cell cycle stage: mitosis), 55.9 °C. In addition, the “solubility change mitosis (log2)” value in the data set on HeLa Kyoto [4] is -0.127.
